Our source for the protein stability index values is the supplement of paper PMC10567573.

The data set in a line: protein stability index of a GFP-peptide fusion (GPS, HEK-293T) (PSI 1-6); higher = more stable. Conditions: c terminus: native.
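Note: lentivirally expressed fusion library, cells FACS-sorted into six equal-sized GFP/DsRed ratio bins, PSI computed from sequencing read fractions per bin weighted by bin number.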

For the protein CQPISFSGFGAEDDDLGGLGLGPF [POLD2 addF], for the setting “parent: NP_006221.1”, the protein stability index was found to be 3.13.

Take DGWIRVSSDNVADLHEKYSGSTPF [PSMB5 addF]: the protein stability index (parent: NP_002788.1) worked out at 3.79.

LPALFTDLYSQEITAEEAREALPF [SNF8 addF]: under “parent: NP_009172.2”, the protein stability index was found to be 4.24.

As to EQRNSRWNTVLRAVKAKTHHLEPF [TRPA1 addF], the protein stability index (parent: NP_015628.1) was found to be 4.28.

Regarding HSLRAVSTDPPHHDHHDEFCLMPF [BEX2 addF], the protein stability index (parent: NP_116010.1) stood at 3.66.
